According to US20230365675A1 (published 2023):

Tests used:
[1] = target: CD33-GFP fusion protein, wild type (WT), on 293FT cells (UniProt P20138); test: FACS, WT CD33-GFP on 293FT cells
[2] = target: Mutant CD33-GFP JS23 (L23N) on 293FT cells (UniProt P20138); test: FACS, mutant CD33-GFP on 293FT cells
[3] = target: Mutant CD33-GFP JS24 (Q24E) on 293FT cells (UniProt P20138); test: FACS, mutant CD33-GFP on 293FT cells
[4] = target: Mutant CD33-GFP JS25 (V25M) on 293FT cells (UniProt P20138); test: FACS, mutant CD33-GFP on 293FT cells
[5] = target: Mutant CD33-GFP JS28 (S28L) on 293FT cells (UniProt P20138); test: FACS, mutant CD33-GFP on 293FT cells
[6] = target: Mutant CD33-GFP M10 (Y127A) on 293FT cells (UniProt P20138); test: FACS, mutant CD33-GFP on 293FT cells
[7] = target: Mutant CD33-GFP M11 (L78T) on 293FT cells (UniProt P20138); test: FACS, mutant CD33-GFP on 293FT cells
[8] = target: Mutant CD33-GFP M12 (G88S) on 293FT cells (UniProt P20138); test: FACS, mutant CD33-GFP on 293FT cells
[9] = target: Mutant CD33-GFP M13 (R91E) on 293FT cells (UniProt P20138); test: FACS, mutant CD33-GFP on 293FT cells
[10] = target: Mutant CD33-GFP M14 (E170R) on 293FT cells (UniProt P20138); test: FACS, mutant CD33-GFP on 293FT cells
[11] = target: Mutant CD33-GFP M15 (Q171A) on 293FT cells (UniProt P20138); test: FACS, mutant CD33-GFP on 293FT cells
[12] = target: Mutant CD33-GFP M16 (4889AII) on 293FT cells (UniProt P20138); test: FACS, mutant CD33-GFP on 293FT cells
[13] = target: Mutant CD33-GFP M17 (F21Y) on 293FT cells (UniProt P20138); test: FACS, mutant CD33-GFP on 293FT cells
[14] = target: Mutant CD33-GFP M18 (353AAL) on 293FT cells (UniProt P20138); test: FACS, mutant CD33-GFP on 293FT cells
[15] = target: Mutant CD33-GFP M19 (348ATAI) on 293FT cells (UniProt P20138); test: FACS, mutant CD33-GFP on 293FT cells
[16] = target: Mutant CD33-GFP M4 (R122D) on 293FT cells (UniProt P20138); test: FACS, mutant CD33-GFP on 293FT cells
[17] = target: Mutant CD33-GFP M5 (AEAD), quadruple mutant, on 293FT cells (UniProt P20138); test: FACS, mutant CD33-GFP on 293FT cells
[18] = target: Mutant CD33-GFP M9 (Y49, 50A) on 293FT cells (UniProt P20138); test: FACS, mutant CD33-GFP on 293FT cells
[19] = target: Mutant CD33-GFP N20D on 293FT cells (UniProt P20138); test: FACS, mutant CD33-GFP on 293FT cells
[20] = target: T1, Mutant CD33-GFP M1 (W22A) on 293FT cells (UniProt P20138 18-364); test: FACS, mutant CD33-GFP on 293FT cells
T1 construct: whole, on cells; not shown: GFP fused to CD33

[21] = target: T2, Mutant CD33-GFP M2 (H45E) on 293FT cells (UniProt P20138 18-364); test: FACS, mutant CD33-GFP on 293FT cells
T2 construct: whole, on cells; not shown: GFP fused to CD33

[22] = target: T3, Mutant CD33-GFP M3 (N99A) on 293FT cells (UniProt P20138 18-364); test: FACS, mutant CD33-GFP on 293FT cells
T3 construct: whole, on cells; not shown: GFP fused to CD33

[23] = target: T4, Mutant CD33-GFP M6 (F43N) on 293FT cells (UniProt P20138 18-364); test: FACS, mutant CD33-GFP on 293FT cells
T4 construct: whole, on cells; not shown: GFP fused to CD33

[24] = target: T5, Mutant CD33-GFP M7 (R98D) on 293FT cells (UniProt P20138 18-364); test: FACS, mutant CD33-GFP on 293FT cells
T5 construct: whole, on cells; not shown: GFP fused to CD33

[25] = target: T6, Mutant CD33-GFP M8 (K52A) on 293FT cells (UniProt P20138 18-364); test: FACS, mutant CD33-GFP on 293FT cells
T6 construct: whole, on cells; not shown: GFP fused to CD33

[26] = target: Biotinylated CD33 protein (UniProt P20138); test: Octet competition on biotinylated CD33; competitor 348
[27] = target: Biotinylated CD33 protein (UniProt P20138); test: Octet competition on biotinylated CD33; competitor 353
[28] = target: Biotinylated CD33 protein (UniProt P20138); test: Octet competition on biotinylated CD33; competitor 389
[29] = target: Biotinylated CD33 protein (UniProt P20138); test: Octet competition on biotinylated CD33; competitor 413
[30] = target: Biotinylated CD33 protein (UniProt P20138); test: Octet competition on biotinylated CD33; competitor 416
[31] = target: Biotinylated CD33 protein (UniProt P20138); test: Octet competition on biotinylated CD33; competitor 420
[32] = target: Biotinylated CD33 protein (UniProt P20138); test: Octet competition on biotinylated CD33; competitor 426
[33] = target: Biotinylated CD33 protein (UniProt P20138); test: Octet competition on biotinylated CD33; competitor 429
[34] = target: Biotinylated CD33 protein (UniProt P20138); test: Octet competition on biotinylated CD33; competitor 430
[35] = target: Biotinylated CD33 protein (UniProt P20138); test: Octet competition on biotinylated CD33; competitor h195
[36] = target: T7, CD33 on MOLM-13 cells (human, UniProt P20138 18-364); test: FACS, MOLM-13 cells expressing CD33 against MOLM-13 CD33 knockout
T7 construct: whole, on cells; also called MOLM-13 cell line expressing CD33; wild-type MOLM-13 cells (CD33+)
Text: A naïve llama phage library was panned and screened to identify single domain antibodies that specifically recognize CD33. A MOLM-13 cell line expressing CD33 was used as a CD33-positive cell line, and a MOLM-13 cell line harboring a knockout of CD33 was used as a CD-33 negative cell line. A purified anti-human CD33 antibody was used as a positive control. Specific binding activity of identified binders was confirmed by FACS. The heavy chain variable region sequences of the identified binders are included herein.

[37] = target: Biotinylated CD33 protein (UniProt P20138); test: Octet competition on biotinylated CD33; competitor 424

Sequence of Mutant CD33-GFP M17 (F21Y) on 293FT cells (P20138 18-364 F21Y): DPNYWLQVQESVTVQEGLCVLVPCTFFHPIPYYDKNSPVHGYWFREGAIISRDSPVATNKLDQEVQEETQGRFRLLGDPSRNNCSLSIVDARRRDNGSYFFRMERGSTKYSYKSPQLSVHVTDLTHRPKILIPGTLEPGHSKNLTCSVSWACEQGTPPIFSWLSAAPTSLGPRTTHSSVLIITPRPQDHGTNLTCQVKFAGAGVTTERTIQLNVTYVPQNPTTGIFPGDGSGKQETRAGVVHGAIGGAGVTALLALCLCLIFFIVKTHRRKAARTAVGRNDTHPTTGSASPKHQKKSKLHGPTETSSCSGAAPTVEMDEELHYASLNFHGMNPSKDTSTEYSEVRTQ
Sequence of Mutant CD33-GFP JS28 (S28L) on 293FT cells (P20138 18-364 S28L): as the sequence (P20138 18-364 F21Y) above, with Y4F, S11L counted along it
T5 sequence (P20138 18-364 R98D): as the sequence (P20138 18-364 F21Y) above, with Y4F, R81D counted along it
T1 sequence (P20138 18-364 W22A): as the sequence (P20138 18-364 F21Y) above, with Y4F, W5A counted along it
Sequence of Biotinylated CD33 protein (P20138 18-259 limits assumed): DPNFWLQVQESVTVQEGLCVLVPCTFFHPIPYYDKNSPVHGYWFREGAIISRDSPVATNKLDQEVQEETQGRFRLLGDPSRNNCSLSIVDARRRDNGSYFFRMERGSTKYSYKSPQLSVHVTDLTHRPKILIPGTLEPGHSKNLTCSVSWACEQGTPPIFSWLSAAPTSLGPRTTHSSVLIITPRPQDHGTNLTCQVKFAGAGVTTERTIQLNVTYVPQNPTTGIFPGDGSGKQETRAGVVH
Sequence of Mutant CD33-GFP M15 (Q171A) on 293FT cells (P20138 18-364 Q171A): as the sequence (P20138 18-364 F21Y) above, with Y4F, Q154A counted along it
Sequence of Mutant CD33-GFP M9 (Y49, 50A) on 293FT cells (P20138 other isoform, or with tags, fused parts or gaps mutant): as the sequence (P20138 18-364 F21Y) above, with Y4F, Y32A, Y33A counted along it
Sequence of Mutant CD33-GFP JS23 (L23N) on 293FT cells (P20138 18-364 L23N): as the sequence (P20138 18-364 F21Y) above, with Y4F, L6N counted along it
Sequence of Mutant CD33-GFP M10 (Y127A) on 293FT cells (P20138 18-364 Y127A): as the sequence (P20138 18-364 F21Y) above, with Y4F, Y110A counted along it
Sequence of Mutant CD33-GFP JS24 (Q24E) on 293FT cells (P20138 18-364 Q24E): as the sequence (P20138 18-364 F21Y) above, with Y4F, Q7E counted along it
T3 sequence (P20138 18-364 N99A): as the sequence (P20138 18-364 F21Y) above, with Y4F, N82A counted along it
Sequence of Mutant CD33-GFP M13 (R91E) on 293FT cells (P20138 18-364 R91E): as the sequence (P20138 18-364 F21Y) above, with Y4F, R74E counted along it
Sequence of Mutant CD33-GFP M11 (L78T) on 293FT cells (P20138 18-364 L78T): as the sequence (P20138 18-364 F21Y) above, with Y4F, L61T counted along it
T4 sequence (P20138 18-364 F43N): as the sequence (P20138 18-364 F21Y) above, with Y4F, F26N counted along it
T2 sequence (P20138 18-364 H45E): as the sequence (P20138 18-364 F21Y) above, with Y4F, H28E counted along it
Sequence of Mutant CD33-GFP M12 (G88S) on 293FT cells (P20138 18-364 G88S): as the sequence (P20138 18-364 F21Y) above, with Y4F, G71S counted along it
Sequence of Mutant CD33-GFP JS25 (V25M) on 293FT cells (P20138 18-364 V25M): as the sequence (P20138 18-364 F21Y) above, with Y4F, V8M counted along it
Sequence of Mutant CD33-GFP M4 (R122D) on 293FT cells (P20138 18-364 R122D): as the sequence (P20138 18-364 F21Y) above, with Y4F, R105D counted along it
Sequence of Mutant CD33-GFP M14 (E170R) on 293FT cells (P20138 18-364 E170R): as the sequence (P20138 18-364 F21Y) above, with Y4F, E153R counted along it
Sequence of Mutant CD33-GFP N20D on 293FT cells (P20138 18-364 N20D): as the sequence (P20138 18-364 F21Y) above, with N3D, Y4F counted along it
Sequence of CD33-GFP fusion protein, wild type (WT), on 293FT cells (P20138 18-364): as the sequence (P20138 18-364 F21Y) above, with Y4F counted along it
T7 sequence (P20138 18-364): as the sequence (P20138 18-364 F21Y) above, with Y4F counted along it
T6 sequence (P20138 18-364 K52A): as the sequence (P20138 18-364 F21Y) above, with Y4F, K35A counted along it
Sequence of Mutant CD33-GFP M5 (AEAD), quadruple mutant, on 293FT cells (P20138 other isoform, or with tags, fused parts or gaps mutant): as the sequence (P20138 18-364 F21Y) above, with Y4F, W5A, H28E, N82A, R105D counted along it

| Binder | FACS binding data [1] | FACS binding data [2] | FACS binding data [3] | FACS binding data [4] | FACS binding data [5] | FACS binding data [6] | FACS binding data [7] | FACS binding data [8] | FACS binding data [9] | FACS binding data [10] | FACS binding data [11] | FACS binding data [12] | FACS binding data [13] | FACS binding data [14] | FACS binding data [15] | FACS binding data [16] | FACS binding data [17] | FACS binding data [18] | FACS binding data [19] | FACS binding data [20] | other results |
| --- | --- | --- | --- | --- | --- | --- | --- | --- | --- | --- | --- | --- | --- | --- | --- | --- | --- | --- | --- | --- | --- |
| sdCD33_8 (VHH, sdAb from a naive llama phage library; also called 424; sdAb424) VHH: QVQLVESGGGLVQAGGSLRLSCAASGGAFSTYTMGWFRQAPGKEREFVAAIAWTGTHTYYSDSVKGRFTISRDNDKNTVFLQMNSLKPEDTAVYYCAQASSRYRAVTDSLSENHWGPGTQVTVST | 98.6 | 97.8 | 99.4 | 99.6 | 99.6 | 83.7 | 65.9 | 98.8 | 99.1 | 98.8 | 98.7 | 98.5 | 99 | 70.2 | 99.5 | 98.6 | 0.07 | 0.23 | 98.3 | 80.1 | FACS binding data [21]: 97.3; FACS binding data [22]: 3.43; FACS binding data [23]: 98.6; FACS binding data [24]: 97.2; FACS binding data [25]: 95.4; Octet signal [26]: 0.154; Octet signal [27]: 0.444; Octet signal [28]: 0.356; Octet signal [29]: 0.37; Octet signal [30]: 0.086; Octet signal [31]: 0.266; Octet signal [32]: 0.239; Octet signal [33]: 0.163; Octet signal [34]: 0.733; Octet signal [35]: 0.648; binding result [36]: binds |
| sdCD33_9 (VHH, sdAb from a naive llama phage library; also called 426; sdAb426) VHH: QVKLEESGGGLVRAGGSLRLSCAASGGTFSTYAMAWFRQAPGKEREFVAAITWGGGSTYYEDSVKGRFTISRDNAKNTGVLQMNNLDVDDTAVYYCYAFGRSRAGDANGDYWGQGTQVTVSS | 99.2 | 99.2 | 99.4 | 99.7 | 99.7 | 96.1 | 77.8 | 99.2 | 99.3 | 99.2 | 99.3 | 99 | 99.1 | 99.3 | 99.8 | 95.9 | 1.2 | 1.25 | 99.1 | 99.5 | FACS binding data [21]: 97.7; FACS binding data [22]: 99.5; FACS binding data [23]: 99.2; FACS binding data [24]: 99.1; FACS binding data [25]: 96.8; Octet signal [26]: 0.183; Octet signal [27]: 0.259; Octet signal [28]: 0.53; Octet signal [29]: 0.257; Octet signal [30]: 0.304; Octet signal [31]: 0.191; Octet signal [37]: 0.0441; Octet signal [33]: 0.0225; Octet signal [34]: 0.538; Octet signal [35]: 0.743; binding result [36]: binds |
| sdCD33_7 (VHH, sdAb from a naive llama phage library; also called 420; sdAb420) VHH: EVQLVESGGGLVQPGGSLRLSCVASGFTFKDYGMTWVRQAPGKALEWVSDINSAGDGIYYSDSVKGRFTISRDDSKGTLYLQMNSLTPEDTAIYYCAAERQRAGDVKRSLAPITAHIWGQGTQVTVSS | 98.6 | 98.7 | 99.1 | 99.5 | 99.6 | 98.1 | 72.4 | 98.7 | 98.8 | 98.7 | 98.9 | 98.5 | 99.1 | 99.1 | 99.4 | 97.8 | 0.15 | 34.6 | 99.1 | 98.4 | FACS binding data [21]: 91.5; FACS binding data [22]: 98.9; FACS binding data [23]: 98.3; FACS binding data [24]: 74.8; FACS binding data [25]: 8.64; Octet signal [26]: 0.139; Octet signal [27]: 0.183; Octet signal [28]: 0.376; Octet signal [29]: 0.2; Octet signal [30]: -0.094; Octet signal [37]: -0.0931; Octet signal [32]: 0.0276; Octet signal [33]: -0.124; Octet signal [34]: 0.457; Octet signal [35]: 0.579; binding result [36]: binds |
| sdCD33_6 (VHH, sdAb from a naive llama phage library; also called 416; sdAb416) VHH: EVQLVESGGGLVQPRGSLRLSCVVSGSMSSIYSMSWYRQPPGKQRELVAHITTTGTTNYIDSVKGRFTISIDNDINVIYLQMNTLKPEDTAVYYCNAGLKAGPGPRLDYWGLGTQVTVSS | 98.8 | 94.3 | 98.6 | 99 | 99.6 | 98.9 | 45.1 | 99.1 | 99.2 | 99 | 98.9 | 80.8 | 99.1 | 99.8 | 99.6 | 99.3 | 0.24 | 99.1 | 99 | 1.25 | FACS binding data [21]: 96.6; FACS binding data [22]: 98.7; FACS binding data [23]: 97.9; FACS binding data [24]: 98.6; FACS binding data [25]: 98.9; Octet signal [26]: 0.229; Octet signal [27]: 0.438; Octet signal [28]: 0.456; Octet signal [29]: 0.376; Octet signal [31]: 0.34; Octet signal [37]: 0.22; Octet signal [32]: 0.514; Octet signal [33]: 0.261; Octet signal [34]: 0.697; Octet signal [35]: 0.565; binding result [36]: binds |
